Results taken from PMC6372160, “Biophysical and structural characterization of a zinc-responsive repressor of the MarR superfamily” (PLoS ONE, 2019).

Columns and labels:
[1] = target: the molecule itself; experiment: SEC; gel filtration at the end of purification, 20 mM Tris-HCl (pH 7.0), 200 mM NaCl, 100 uM ZnSO4; data not shown
[2] = target: the molecule itself; experiment: SEC-MALS; 50 ul of fully purified protein at approximately 1-4 mg/ml on a KW-803 column (Shodex), 0.5 ml/min, supplemented with 1 uM ZnSO4 (untreated protein)

B1: ZitR protein of Lactococcus lactis subspecies cremoris strain MG1363, untagged recombinant (S2A, A4R, D8E) form (natural protein, UniProt A2RNS2 1-145, looked up)
chain: MALRNQIEQFLGAIMQFAENKHEILLGECESNVKLTSTQEHILMILAAEVSTNARIAEQLKISPAAVTKALKKLQEQELIKSSRATNDERVVLWSLTEKAIPVAKEHAAHHEKTLSTYQELGDKFTDEEQKVISQFLSVLTEEFR
notes: A minor tetrameric form was also seen at the end of the purification; also called ZitRMG; holo-ZitRMG
stoichiometry N [1]: 4
stoichiometry N [2]: 2
